Experimental data from patent US20100285451A1.

Molecular target: Somatostatin 2 receptor-eYFP-α fusion (E. coli)
Assay: cell-based or functional assay

EC50, arrestin assay (β-galactosidase complementation of β-arrestin-ω + GPCR-eYFP-α): 3 nM | EC50, internalization assay (β-galactosidase complementation of FYVE-ω + GPCR-eYFP-α): 7 nM | fold induction, internalization assay: 3 fold
Substance: somatostatin-14 (from UniProt P61278 103-116) (peptide)
